Measured values taken from US20250026860A1 (NATIONAL UNIVERSITY CORPORATION OKAYAMA UNIVERSITY, published 2025).

Key:
Assay in all cases: ELISA, albumin preparation immobilized on 96-well microplate
[1] = target: T1, bovine serum albumin modified with methylglyoxal (bovine, UniProt P02769 25-607, non-enzymatically modified by incubation with methylglyoxal (50 mM, 7 days); sites not stated)
T1 construct: also called Methylglyoxal BSA
Source text: (§1) Each mixed solution of substrate albumin and a protein-modifying substance was immobilized on a 96-well microplate, and was investigated for specificity to the anti-4-HNE antibody (#13-1-1) of the present invention by an ELISA method.

[2] = target: T2, rabbit serum albumin modified with D-glucose (rabbit, UniProt P49065 25-608, non-enzymatically modified by incubation with D-glucose (250 mM, 3 weeks); sites not stated)
T2 construct: also called D-glucose Rabbit-SA
Source text: as §1

[3] = target: T3, rabbit serum albumin, unmodified (rabbit, UniProt P49065 25-608)
T3 construct: also called Rabbit-SA
Source text: as §1

[4] = target: T4, human serum albumin modified with D-glucose (human, UniProt P02768 25-609, non-enzymatically modified by incubation with D-glucose (250 mM, 3 weeks); sites not stated)
T4 construct: also called D-glucose HSA
Source text: as §1

[5] = target: T5, human serum albumin modified with glycolaldehyde (human, UniProt P02768 25-609, non-enzymatically modified by incubation with glycolaldehyde (50 mM, 7 days); sites not stated)
T5 construct: also called Glycolaldehyde HSA
Source text: as §1

[6] = target: T6, rat serum albumin modified with glyoxal (rat, UniProt P02770 25-608, non-enzymatically modified by incubation with glyoxal (50 mM, 7 days); sites not stated)
T6 construct: also called Glyoxal Rat-SA
Source text: as §1

[7] = target: T7, rabbit serum albumin modified with crotonaldehyde (rabbit, UniProt P49065 25-608, non-enzymatically modified by incubation with crotonaldehyde (CRA, 50 mM, 7 days); sites not stated)
T7 construct: also called CRA Rabbit-SA
Source text: as §1

[8] = target: T8, rabbit serum albumin modified with glycolaldehyde (rabbit, UniProt P49065 25-608, non-enzymatically modified by incubation with glycolaldehyde (50 mM, 7 days); sites not stated)
T8 construct: also called Glycolaldehyde Rabbit-SA
Source text: as §1

[9] = target: T9, bovine serum albumin, unmodified (bovine, UniProt P02769 25-607)
T9 construct: also called BSA
Source text: as §1

[10] = target: T10, rat serum albumin modified with D-glucose (rat, UniProt P02770 25-608, non-enzymatically modified by incubation with D-glucose (250 mM, 3 weeks); sites not stated)
T10 construct: also called D-glucose Rat-SA
Source text: as §1

[11] = target: T11, human serum albumin, unmodified (human, UniProt P02768 25-609)
T11 construct: also called HSA
Source text: as §1

[12] = target: T12, rabbit serum albumin modified with glyoxal (rabbit, UniProt P49065 25-608, non-enzymatically modified by incubation with glyoxal (50 mM, 7 days); sites not stated)
T12 construct: also called Glyoxal Rabbit-SA
Source text: as §1

[13] = target: T13, rat serum albumin modified with malondialdehyde (rat, UniProt P02770 25-608, non-enzymatically modified by incubation with malondialdehyde (MDA, 50 mM, 7 days); sites not stated)
T13 construct: also called MDA Rat-SA
Source text: as §1

[14] = target: T14, rat serum albumin modified with crotonaldehyde (rat, UniProt P02770 25-608, non-enzymatically modified by incubation with crotonaldehyde (CRA, 50 mM, 7 days); sites not stated)
T14 construct: also called CRA Rat-SA
Source text: as §1

[15] = target: T15, human serum albumin modified with glyoxal (human, UniProt P02768 25-609, non-enzymatically modified by incubation with glyoxal (50 mM, 7 days); sites not stated)
T15 construct: also called Glyoxal HSA
Source text: as §1

[16] = target: T16, bovine serum albumin modified with glyoxal (bovine, UniProt P02769 25-607, non-enzymatically modified by incubation with glyoxal (50 mM, 7 days); sites not stated)
T16 construct: also called Glyoxal BSA
Source text: as §1

[17] = target: T17, bovine serum albumin modified with D-glucose (bovine, UniProt P02769 25-607, non-enzymatically modified by incubation with D-glucose (250 mM, 3 weeks); sites not stated)
T17 construct: also called D-glucose BSA
Source text: as §1

[18] = target: T18, rabbit serum albumin modified with methylglyoxal (rabbit, UniProt P49065 25-608, non-enzymatically modified by incubation with methylglyoxal (50 mM, 7 days); sites not stated)
T18 construct: also called Methylglyoxal Rabbit-SA
Source text: as §1

[19] = target: T19, rat serum albumin, unmodified (rat, UniProt P02770 25-608)
T19 construct: also called Rat-SA
Source text: as §1

[20] = target: T20, bovine serum albumin modified with crotonaldehyde (bovine, UniProt P02769 25-607, non-enzymatically modified by incubation with crotonaldehyde (CRA, 50 mM, 7 days); sites not stated)
T20 construct: also called CRA BSA
Source text: as §1

[21] = target: T21, human serum albumin modified with glyceraldehyde (human, UniProt P02768 25-609, non-enzymatically modified by incubation with glyceraldehyde (50 mM, 7 days); sites not stated)
T21 construct: also called Glyceraldehyde HSA
Source text: as §1

[22] = target: T22, human serum albumin modified with crotonaldehyde (human, UniProt P02768 25-609, non-enzymatically modified by incubation with crotonaldehyde (CRA, 50 mM, 7 days); sites not stated)
T22 construct: also called CRA HSA
Source text: as §1

[23] = target: T23, bovine serum albumin modified with glyceraldehyde (bovine, UniProt P02769 25-607, non-enzymatically modified by incubation with glyceraldehyde (50 mM, 7 days); sites not stated)
T23 construct: also called Glyceraldehyde BSA
Source text: as §1

[24] = target: T24, rat serum albumin modified with glyceraldehyde (rat, UniProt P02770 25-608, non-enzymatically modified by incubation with glyceraldehyde (50 mM, 7 days); sites not stated)
T24 construct: also called Glyceraldehyde Rat-SA
Source text: as §1

[25] = target: T25, rat serum albumin modified with glycolaldehyde (rat, UniProt P02770 25-608, non-enzymatically modified by incubation with glycolaldehyde (50 mM, 7 days); sites not stated)
T25 construct: also called Glycolaldehyde Rat-SA
Source text: as §1

[26] = target: T26, human serum albumin modified with malondialdehyde (human, UniProt P02768 25-609, non-enzymatically modified by incubation with malondialdehyde (MDA, 50 mM, 7 days); sites not stated)
T26 construct: also called MDA HSA
Source text: as §1

[27] = target: T27, rabbit serum albumin modified with malondialdehyde (rabbit, UniProt P49065 25-608, non-enzymatically modified by incubation with malondialdehyde (MDA, 50 mM, 7 days); sites not stated)
T27 construct: also called MDA Rabbit-SA
Source text: as §1

[28] = target: T28, bovine serum albumin modified with malondialdehyde (bovine, UniProt P02769 25-607, non-enzymatically modified by incubation with malondialdehyde (MDA, 50 mM, 7 days); sites not stated)
T28 construct: also called MDA BSA
Source text: as §1

[29] = target: T29, bovine serum albumin modified with glycolaldehyde (bovine, UniProt P02769 25-607, non-enzymatically modified by incubation with glycolaldehyde (50 mM, 7 days); sites not stated)
T29 construct: also called Glycolaldehyde BSA
Source text: as §1

[30] = target: T30, rat serum albumin modified with methylglyoxal (rat, UniProt P02770 25-608, non-enzymatically modified by incubation with methylglyoxal (50 mM, 7 days); sites not stated)
T30 construct: also called Methylglyoxal Rat-SA
Source text: as §1

[31] = target: T31, human serum albumin modified with methylglyoxal (human, UniProt P02768 25-609, non-enzymatically modified by incubation with methylglyoxal (50 mM, 7 days); sites not stated)
T31 construct: also called Methylglyoxal HSA
Source text: as §1

[32] = target: T32, rabbit serum albumin modified with glyceraldehyde (rabbit, UniProt P49065 25-608, non-enzymatically modified by incubation with glyceraldehyde (50 mM, 7 days); sites not stated)
T32 construct: also called Glyceraldehyde Rabbit-SA
Source text: as §1

[33] = target: human serum albumin protein adduct with 4-HNE (human) (UniProt P02768)
[34] = target: rat serum albumin protein adduct with 4-HNE (rat) (UniProt P02770)
[35] = target: bovine serum albumin protein adduct with 4-HNE (bovine) (UniProt P02769)
[36] = target: rabbit serum albumin protein adduct with 4-HNE (rabbit) (UniProt P49065)
rabbit serum albumin protein adduct with 4-HNE (rabbit), sequence (P49065 25-608 limits assumed, form in doubt): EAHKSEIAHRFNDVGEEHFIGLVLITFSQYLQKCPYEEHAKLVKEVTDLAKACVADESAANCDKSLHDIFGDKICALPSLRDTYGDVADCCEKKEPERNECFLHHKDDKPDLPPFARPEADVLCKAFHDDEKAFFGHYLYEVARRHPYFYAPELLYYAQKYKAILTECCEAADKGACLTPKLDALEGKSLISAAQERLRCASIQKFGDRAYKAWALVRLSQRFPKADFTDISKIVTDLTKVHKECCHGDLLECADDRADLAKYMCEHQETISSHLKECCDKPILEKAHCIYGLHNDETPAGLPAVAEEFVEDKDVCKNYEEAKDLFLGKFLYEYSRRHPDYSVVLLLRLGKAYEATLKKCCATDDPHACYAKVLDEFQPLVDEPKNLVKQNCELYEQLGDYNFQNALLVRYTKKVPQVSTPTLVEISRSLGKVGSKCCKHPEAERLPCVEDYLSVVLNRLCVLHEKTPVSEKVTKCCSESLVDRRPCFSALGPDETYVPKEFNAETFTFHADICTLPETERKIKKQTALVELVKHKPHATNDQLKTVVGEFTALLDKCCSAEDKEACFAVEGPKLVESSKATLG

T23 sequence (P02769 25-607 limits assumed): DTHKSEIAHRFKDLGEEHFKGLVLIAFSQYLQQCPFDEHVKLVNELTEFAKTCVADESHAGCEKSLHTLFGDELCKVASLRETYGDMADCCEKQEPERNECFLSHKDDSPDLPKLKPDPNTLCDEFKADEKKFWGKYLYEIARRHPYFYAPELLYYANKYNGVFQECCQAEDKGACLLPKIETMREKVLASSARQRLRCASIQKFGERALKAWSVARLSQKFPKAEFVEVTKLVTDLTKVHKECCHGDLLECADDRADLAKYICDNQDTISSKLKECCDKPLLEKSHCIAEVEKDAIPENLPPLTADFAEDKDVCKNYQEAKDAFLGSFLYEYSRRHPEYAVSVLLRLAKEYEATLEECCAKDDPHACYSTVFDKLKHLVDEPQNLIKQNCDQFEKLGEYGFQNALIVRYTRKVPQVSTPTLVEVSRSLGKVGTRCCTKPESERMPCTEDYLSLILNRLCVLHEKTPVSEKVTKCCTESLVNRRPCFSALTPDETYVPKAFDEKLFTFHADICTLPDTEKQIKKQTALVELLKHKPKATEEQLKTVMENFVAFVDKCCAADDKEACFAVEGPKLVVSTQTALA
T17 sequence (P02769 25-607 limits assumed): as above
T29 sequence (P02769 25-607 limits assumed): as above
T20 sequence (P02769 25-607 limits assumed): as above
T28 sequence (P02769 25-607 limits assumed): as above
T16 sequence (P02769 25-607 limits assumed): as above
bovine serum albumin protein adduct with 4-HNE (bovine), sequence (P02769 25-607 limits assumed, form in doubt): as the sequence (P02769 25-607 limits assumed) above
T1 sequence (P02769 25-607 limits assumed): as above
T9 sequence (P02769 25-607 limits assumed): as above
T21 sequence (P02768 25-609 limits assumed): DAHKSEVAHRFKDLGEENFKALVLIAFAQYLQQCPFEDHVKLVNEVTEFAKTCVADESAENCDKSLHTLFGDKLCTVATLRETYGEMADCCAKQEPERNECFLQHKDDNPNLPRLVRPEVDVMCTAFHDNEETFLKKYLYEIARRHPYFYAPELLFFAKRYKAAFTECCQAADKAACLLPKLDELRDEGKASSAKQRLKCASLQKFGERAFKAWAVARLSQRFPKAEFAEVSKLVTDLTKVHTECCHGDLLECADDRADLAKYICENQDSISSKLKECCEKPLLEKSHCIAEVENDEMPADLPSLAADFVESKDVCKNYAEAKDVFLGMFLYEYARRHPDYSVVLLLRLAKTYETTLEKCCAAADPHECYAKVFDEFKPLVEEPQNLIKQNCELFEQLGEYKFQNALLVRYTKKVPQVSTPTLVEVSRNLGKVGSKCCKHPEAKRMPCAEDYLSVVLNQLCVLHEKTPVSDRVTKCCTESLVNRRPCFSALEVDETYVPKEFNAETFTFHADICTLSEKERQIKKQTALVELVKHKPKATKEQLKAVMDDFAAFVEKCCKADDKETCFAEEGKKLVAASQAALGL
human serum albumin protein adduct with 4-HNE (human), sequence (P02768 25-609 limits assumed, form in doubt): as the sequence (P02768 25-609 limits assumed) above
T11 sequence (P02768 25-609 limits assumed): as above
T26 sequence (P02768 25-609 limits assumed): as above
T22 sequence (P02768 25-609 limits assumed): as above
T15 sequence (P02768 25-609 limits assumed): as above
T4 sequence (P02768 25-609 limits assumed): as above
T5 sequence (P02768 25-609 limits assumed): as above
T31 sequence (P02768 25-609 limits assumed): as above
T32 sequence (P49065 25-608 limits assumed): as the sequence (P49065 25-608 limits assumed, form in doubt) above
T18 sequence (P49065 25-608 limits assumed): as the sequence (P49065 25-608 limits assumed, form in doubt) above
T3 sequence (P49065 25-608 limits assumed): as the sequence (P49065 25-608 limits assumed, form in doubt) above
T7 sequence (P49065 25-608 limits assumed): as the sequence (P49065 25-608 limits assumed, form in doubt) above
T27 sequence (P49065 25-608 limits assumed): as the sequence (P49065 25-608 limits assumed, form in doubt) above
T8 sequence (P49065 25-608 limits assumed): as the sequence (P49065 25-608 limits assumed, form in doubt) above
T2 sequence (P49065 25-608 limits assumed): as the sequence (P49065 25-608 limits assumed, form in doubt) above
T12 sequence (P49065 25-608 limits assumed): as the sequence (P49065 25-608 limits assumed, form in doubt) above
rat serum albumin protein adduct with 4-HNE (rat), sequence (P02770 25-608 limits assumed, form in doubt): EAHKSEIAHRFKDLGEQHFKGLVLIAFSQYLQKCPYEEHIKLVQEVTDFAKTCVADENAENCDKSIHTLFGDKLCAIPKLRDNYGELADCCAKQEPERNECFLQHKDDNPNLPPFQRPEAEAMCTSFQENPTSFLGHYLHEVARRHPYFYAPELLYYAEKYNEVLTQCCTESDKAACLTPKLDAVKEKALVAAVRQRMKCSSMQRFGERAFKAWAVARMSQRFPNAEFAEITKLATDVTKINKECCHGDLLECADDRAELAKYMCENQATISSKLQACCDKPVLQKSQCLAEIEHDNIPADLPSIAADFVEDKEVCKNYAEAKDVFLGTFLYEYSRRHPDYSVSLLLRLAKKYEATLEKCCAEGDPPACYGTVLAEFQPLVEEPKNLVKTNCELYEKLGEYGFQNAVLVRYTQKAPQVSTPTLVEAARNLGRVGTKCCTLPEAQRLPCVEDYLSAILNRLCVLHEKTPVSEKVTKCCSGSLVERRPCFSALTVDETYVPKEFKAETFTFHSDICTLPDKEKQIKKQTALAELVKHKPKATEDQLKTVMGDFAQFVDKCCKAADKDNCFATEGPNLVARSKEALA
T25 sequence (P02770 25-608 limits assumed): as the sequence (P02770 25-608 limits assumed, form in doubt) above
T14 sequence (P02770 25-608 limits assumed): as the sequence (P02770 25-608 limits assumed, form in doubt) above
T19 sequence (P02770 25-608 limits assumed): as the sequence (P02770 25-608 limits assumed, form in doubt) above
T30 sequence (P02770 25-608 limits assumed): as the sequence (P02770 25-608 limits assumed, form in doubt) above
T6 sequence (P02770 25-608 limits assumed): as the sequence (P02770 25-608 limits assumed, form in doubt) above
T24 sequence (P02770 25-608 limits assumed): as the sequence (P02770 25-608 limits assumed, form in doubt) above
T10 sequence (P02770 25-608 limits assumed): as the sequence (P02770 25-608 limits assumed, form in doubt) above
T13 sequence (P02770 25-608 limits assumed): as the sequence (P02770 25-608 limits assumed, form in doubt) above

- ELISA reading (name and unit not given) [1]: 0.073
- ELISA reading (name and unit not given) [2]: 0.069
- ELISA reading (name and unit not given) [3]: 0.114
- ELISA reading (name and unit not given) [4]: 0.068
- ELISA reading (name and unit not given) [5]: 0.071
- ELISA reading (name and unit not given) [6]: 0.073
- ELISA reading (name and unit not given) [7]: 0.074
- ELISA reading (name and unit not given) [8]: 0.067
- ELISA reading (name and unit not given) [9]: 0.15
- ELISA reading (name and unit not given) [10]: 0.076
- ELISA reading (name and unit not given) [11]: 0.118
- ELISA reading (name and unit not given) [12]: 0.073
- ELISA reading (name and unit not given) [13]: 0.08
- ELISA reading (name and unit not given) [14]: 0.141
- ELISA reading (name and unit not given) [15]: 0.065
- ELISA reading (name and unit not given) [16]: 0.066
- ELISA reading (name and unit not given) [17]: 0.081
- ELISA reading (name and unit not given) [18]: 0.072
- ELISA reading (name and unit not given) [19]: 0.088
- ELISA reading (name and unit not given) [20]: 0.156
- ELISA reading (name and unit not given) [21]: 0.068
- ELISA reading (name and unit not given) [22]: 0.077
- ELISA reading (name and unit not given) [23]: 0.07
- ELISA reading (name and unit not given) [24]: 0.069
- ELISA reading (name and unit not given) [25]: 0.07
- ELISA reading (name and unit not given) [26]: 0.065
- ELISA reading (name and unit not given) [27]: 0.07
- ELISA reading (name and unit not given) [28]: 0.074
- ELISA reading (name and unit not given) [29]: 0.071
- ELISA reading (name and unit not given) [30]: 0.074
- ELISA reading (name and unit not given) [31]: 0.069
- ELISA reading (name and unit not given) [32]: 0.069
- ELISA reading (name and unit not given) [33]: 0.956
- ELISA reading (name and unit not given) [34]: 1.37
- ELISA reading (name and unit not given) [35]: 1.11
- ELISA reading (name and unit not given) [36]: 0.663
B1: anti-4-HNE monoclonal antibody (#13-1-1) (antibody, V domains shown)
VH: EVKLLASGGGLVQPGGSMRLSCAASGFTFTDFYMYWIRQPAGKAPEWLGFIRNKANGYTTEYNPSVKGRFTISRDNTQNMLYLQMNTLRAEDTATYYCALGYYGYNYNWFAYWGQGTLVTVSS
VL: ETVMTQSPTSMSTSIGERVTLNCRASQSVGINVDWYQQTPGQSPKMLIYGASNRHTGVPDRFTGSGFGRDFTLTISNMEAEDLGVYYCLQYASIPYTFGAGTKLELKR
notes: Rat hybridoma monoclonal antibody; also called anti-4-HNE antibody (#13-1-1); monoclonal antibody produced from Rat hybridoma #13-1-1
